In IntAct's records for PubMed 11423549:

B1: Zyxin (Homo sapiens), Q15942 (parent)
chain: MAAPRPSPAISVSVSAPAFYAPQKKFGPVVAPKPKVNPFRPGDSEPPPAPGAQRAQMGRVGEIPPPPPEDFPLPPPPLAGDGDDAEGALGGAFPPPPPPIEESFPPAPLEEEIFPSPPPPPEEEGGPEAPIPPPPQPREKVSSIDLEIDSLSSLLDDMTKNDPFKARVSSGYVPPPVATPFSSKSSTKPAAGGTAPLPPWKSPSSSQPLPQVPAPAQSQTQFHVQPQPQPKPQVQLHVQSQTQPVSLANTQPRGPPASSPAPAPKFSPVTPKFTPVASKFSPGAPGGSGSQPNQKLGHPEALSAGTGSPQPPSFTYAQQREKPRVQEKQHPVPPPAQNQNQVRSPGAPGPLTLKEVEELEQLTQQLMQDMEHPQRQNVAVNELCGRCHQPLARAQPAVRALGQLFHIACFTCHQCAQQLQGQQFYSLEGAPYCEGCYTDTLEKCNTCGEPITDRMLRATGKAYHPHCFTCVVCARPLEGTSFIVDQANRPHCVPDYHKQYAPRCSVCSEPIMPEPGRDETVRVVALDKNFHMKCYKCEDCGKPLSIEADDNGCFPLDGHVLCRKCHTARAQT

Variants of: B1
Settings: with actn1_human ACTN1, P12814
Sequence of actn1_human ACTN1, P12814 (P12814 whole entry): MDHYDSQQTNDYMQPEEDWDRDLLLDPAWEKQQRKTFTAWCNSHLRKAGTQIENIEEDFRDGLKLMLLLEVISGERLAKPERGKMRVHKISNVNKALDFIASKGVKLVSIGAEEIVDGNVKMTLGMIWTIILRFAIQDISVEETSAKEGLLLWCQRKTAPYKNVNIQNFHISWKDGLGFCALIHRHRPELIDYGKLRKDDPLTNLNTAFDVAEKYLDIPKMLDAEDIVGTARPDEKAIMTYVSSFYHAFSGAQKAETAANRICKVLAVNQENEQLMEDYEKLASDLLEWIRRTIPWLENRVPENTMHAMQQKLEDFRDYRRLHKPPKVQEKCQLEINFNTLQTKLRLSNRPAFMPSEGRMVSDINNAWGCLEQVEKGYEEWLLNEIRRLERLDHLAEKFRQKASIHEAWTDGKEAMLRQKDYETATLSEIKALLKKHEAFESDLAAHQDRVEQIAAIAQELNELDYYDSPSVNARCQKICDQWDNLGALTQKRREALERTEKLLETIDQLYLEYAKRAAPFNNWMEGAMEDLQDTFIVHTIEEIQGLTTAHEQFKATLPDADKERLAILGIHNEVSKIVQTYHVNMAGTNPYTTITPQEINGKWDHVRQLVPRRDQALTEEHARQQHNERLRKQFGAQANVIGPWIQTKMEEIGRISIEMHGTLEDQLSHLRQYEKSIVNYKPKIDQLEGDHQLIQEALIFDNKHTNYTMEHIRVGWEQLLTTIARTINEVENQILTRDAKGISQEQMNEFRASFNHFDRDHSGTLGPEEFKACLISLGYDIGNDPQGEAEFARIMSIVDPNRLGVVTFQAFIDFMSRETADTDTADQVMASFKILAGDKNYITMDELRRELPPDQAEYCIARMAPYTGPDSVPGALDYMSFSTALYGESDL

Q: F26S was tested. Which “effect of a mutation on the interaction” value did it give?
A: The value was “decreasing interaction”.

Q: How did the “effect of a mutation on the interaction” value turn out when F39S was run?
A: Its value is “increasing interaction”.

Q: Which “effect of a mutation on the interaction” value does the source give for V29S here?
A: The value was “decreasing interaction”.

Q: Which “effect of a mutation on the interaction” value does the source give for A31S here?
A: Its value is “decreasing interaction”.
